In article PMC10654658, “The structural and functional investigation into an unusual nitrile synthase” (Nature Communications, 2023) one finds stoichiometry N data, which are given here for 1 substance.

This assay addresses AetD nitrile synthase (Aetokthonos hydrillicola). The experiment in a line: SEC; Superdex 200 10/300 GL; 100 uL of 10 mg/mL AetD in 25 mM Tris-HCl pH 7.5, 150 mM NaCl; flow rate 0.2 mL/min; mass estimated from protein markers.

Regarding “AetD nitrile synthase (from UniProt A0A861B387 1-239) (enzyme)”, the stoichiometry N was 2.
